T1: TRIB2(53–343) (human, UniProt Q92519 53-343)
T1 sequence (looked up): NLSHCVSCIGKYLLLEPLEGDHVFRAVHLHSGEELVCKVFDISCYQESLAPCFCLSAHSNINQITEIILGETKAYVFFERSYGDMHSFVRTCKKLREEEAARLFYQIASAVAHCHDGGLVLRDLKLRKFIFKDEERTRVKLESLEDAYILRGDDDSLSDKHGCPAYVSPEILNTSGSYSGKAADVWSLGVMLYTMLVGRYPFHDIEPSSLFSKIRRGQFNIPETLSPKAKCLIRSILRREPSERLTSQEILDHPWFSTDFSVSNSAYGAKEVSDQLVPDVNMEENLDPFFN

T2: TRIB2(2–343) (human, UniProt Q92519 2-343)
T2 sequence (looked up): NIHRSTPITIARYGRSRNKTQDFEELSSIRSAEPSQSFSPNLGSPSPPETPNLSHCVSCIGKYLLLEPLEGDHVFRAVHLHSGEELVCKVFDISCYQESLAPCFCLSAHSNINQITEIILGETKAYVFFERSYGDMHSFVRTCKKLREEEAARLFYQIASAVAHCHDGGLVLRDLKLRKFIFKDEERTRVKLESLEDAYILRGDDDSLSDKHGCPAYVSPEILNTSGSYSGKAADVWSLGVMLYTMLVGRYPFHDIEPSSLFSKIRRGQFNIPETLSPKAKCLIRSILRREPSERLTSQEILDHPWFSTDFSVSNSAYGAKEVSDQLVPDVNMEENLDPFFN


Experiments:
[1] = target: TRIB2-Nb4.103 complex (human) (UniProt Q92519); assay: ITC
TRIB2(53–343) [2] = target: T1, TRIB2(53–343); assay: ITC
TRIB2(2–343) = target: T2, TRIB2(2–343); assay: ELISA
TRIB2(53–343) [3] = target: T1, TRIB2(53–343); assay: SEC-SAXS
TRIB2(53–343) [4] = target: T1, TRIB2(53–343); assay: SEC-SAXS; remark: listed apart in the source

| Kd (TRIB2(53–343) [2]) | stoichiometry N (TRIB2(53–343) [2]) | binding result (TRIB2(2–343)) | Molecule | further results |
| --- | --- | --- | --- | --- |
| 9000 nM |  |  | MBP-C/EBPa (from UniProt P49715 1-358) (domain or fragment) | fold decrease in affinity against TRIB2 alone [1]: 3 fold |
| 54 nM | 1 |  | Nb4.105 (VHH) VHH: QVQLQESGGGLVQAGGSLRLSCAASGNIFDNDPMGWYRQAPGKERELVAAIAYGATTYYADSVKGRFTISRDNAKNTVYLQMNSLKPEDTAVYYCAAYGIDDSPKVYSLRYWGQGTQVTVSS |  |
|  |  | binds | biotinylated Nb4.105 (Nb-Avi) (VHH, biotin on the Avi-tag) VHH: QVQLQESGGGLVQAGGSLRLSCAASGNIFDNDPMGWYRQAPGKERELVAAIAYGATTYYADSVKGRFTISRDNAKNTVYLQMNSLKPEDTAVYYCAAYGIDDSPKVYSLRYWGQGTQVTVSS |  |
|  |  | binds | biotinylated Nb4.101 (Nb-Avi) (VHH, biotin on the Avi-tag) VHH: QVQLQESGGGLVQAGGSLRLSCAASGNISDYLYMGWYRQAPGKERELVAGISYGANTYYADSVKGRFTISRDNAKNTVYLQMNSLKPEDTAVYYCAVFDASRTPILTYWGQGTQVTVSS |  |
| 57 nM | ~0.5 |  | Nb4.101 (VHH) VHH: QVQLQESGGGLVQAGGSLRLSCAASGNISDYLYMGWYRQAPGKERELVAGISYGANTYYADSVKGRFTISRDNAKNTVYLQMNSLKPEDTAVYYCAVFDASRTPILTYWGQGTQVTVSS | stoichiometry N (TRIB2(53–343) [3]): 1 TRIB2 per nanobody |
| 27 nM | ~0.5 |  | Nb4.103 (VHH) VHH: QVQLQESGGGLVQAGGSLRLSCAASGNISAQAYMGWYRQAPGKERELVAGISYGATTYYADSVKGRFTISRDNAKNTVYLQMNSLKPEDTAVYYCAVISAGGGESIGYHFYWGQGTQVTVSS | stoichiometry N (TRIB2(53–343) [4]): 2 TRIB2 per nanobody |
|  |  | binds | biotinylated Nb4.103 (Nb-Avi) (VHH, biotin on the Avi-tag) VHH: QVQLQESGGGLVQAGGSLRLSCAASGNISAQAYMGWYRQAPGKERELVAGISYGATTYYADSVKGRFTISRDNAKNTVYLQMNSLKPEDTAVYYCAVISAGGGESIGYHFYWGQGTQVTVSS |  |

— doi:10.1101/2022.04.29.489987 (bioRxiv, 2022)
